According to patent US7351690B2, “Knockout identification of target-specific sites in peptides” (priority 2000, dated 2008):
Square brackets hold non-standard residues; d marks the D form. Ends that are not written are not given here. Nle = CCCC[C@H](N)C(=O)O

What was measured:
[1] = target: T1, MC1-R (Mus musculus, UniProt Q01727); test: competitive inhibition binding assay, 125I-NDP-alpha-MSH, B-16 mouse melanoma cell membranes; conditions: for % Inhibition at 1 μM at Melanocortin Receptor 1: 1 μM test peptide, 0.4 nM 125I-NDP-alpha-MSH, B-16 mouse melanoma cell membranes
T1 construct: membranes prepared from hMC3-R, hMC4-R, hMC5-R, and B-16 mouse melanoma cells (containing MC1-R); endogenous in cells; host or cells: B-16 mouse melanoma cells (membranes)
In short: (§1)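 Membranes from hMC3-R, hMC4-R, hMC5-R or B-16 cells (MC1-R) incubated 90 min at room temperature with 0.4 nM 125I-NDP-alpha-MSH and rhenium-complexed test peptide, typically 1 μM, in HEPES pH 7.2 with Mg/Ca/K. Filter-bound radioactivity counted; % inhibition of specific binding (1 μM alpha-MSH defines nonspecific), triplicate means.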

[2] = target: T2, hMC3-R (Homo sapiens, UniProt P41968); test: competitive inhibition binding assay, 125I-NDP-alpha-MSH, hMC3-R membranes; conditions: for % Inhibition at 1 μM at Melanocortin Receptor 3: 1 μM test peptide, 0.4 nM 125I-NDP-alpha-MSH, hMC3-R membranes
T2 construct: expressed in transfected cells
In short: as §1

[3] = target: T3, hMC4-R (Homo sapiens, UniProt P32245); test: competitive inhibition binding assay, 125I-NDP-alpha-MSH, hMC4-R membranes; conditions: for % Inhibition at 1 μM at Melanocortin Receptor 4: 1 μM test peptide, 0.4 nM 125I-NDP-alpha-MSH, hMC4-R membranes
T3 construct: expressed in transfected cells
In short: as §1

[4] = target: T4, hMC5-R (Homo sapiens, UniProt P33032); test: competitive inhibition binding assay, 125I-NDP-alpha-MSH, hMC5-R membranes; conditions: for % Inhibition at 1 μM at Melanocortin Receptor 5: 1 μM test peptide, 0.4 nM 125I-NDP-alpha-MSH, hMC5-R membranes
T4 construct: expressed in transfected cells
In short: as §1

T4 sequence (P33032 whole entry): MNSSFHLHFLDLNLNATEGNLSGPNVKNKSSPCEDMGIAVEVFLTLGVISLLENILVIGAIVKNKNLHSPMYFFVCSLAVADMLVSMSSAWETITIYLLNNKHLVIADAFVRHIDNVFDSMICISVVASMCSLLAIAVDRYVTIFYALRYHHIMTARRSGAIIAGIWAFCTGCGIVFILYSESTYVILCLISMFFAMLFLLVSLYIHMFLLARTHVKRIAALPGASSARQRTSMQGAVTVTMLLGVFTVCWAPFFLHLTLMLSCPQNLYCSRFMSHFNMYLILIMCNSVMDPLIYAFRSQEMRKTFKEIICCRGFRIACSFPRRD
T3 sequence (P32245 whole entry): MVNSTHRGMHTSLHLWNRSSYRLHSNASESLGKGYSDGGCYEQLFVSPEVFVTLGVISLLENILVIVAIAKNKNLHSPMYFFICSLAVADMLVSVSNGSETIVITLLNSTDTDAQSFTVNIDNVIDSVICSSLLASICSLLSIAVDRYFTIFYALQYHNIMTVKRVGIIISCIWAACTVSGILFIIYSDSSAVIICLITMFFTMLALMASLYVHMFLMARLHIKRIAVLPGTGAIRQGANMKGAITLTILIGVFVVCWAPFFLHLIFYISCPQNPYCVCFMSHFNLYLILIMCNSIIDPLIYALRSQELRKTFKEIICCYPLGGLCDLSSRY
T1 sequence (Q01727 whole entry): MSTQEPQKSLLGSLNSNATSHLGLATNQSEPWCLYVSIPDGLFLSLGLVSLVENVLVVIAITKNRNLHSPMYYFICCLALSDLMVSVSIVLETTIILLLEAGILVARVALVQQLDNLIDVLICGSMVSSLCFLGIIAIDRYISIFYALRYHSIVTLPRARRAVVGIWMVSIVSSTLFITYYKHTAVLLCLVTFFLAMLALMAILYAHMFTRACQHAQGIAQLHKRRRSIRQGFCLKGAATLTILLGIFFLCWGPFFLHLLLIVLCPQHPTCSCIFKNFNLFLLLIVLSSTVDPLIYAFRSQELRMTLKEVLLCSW
T2 sequence (P41968 whole entry): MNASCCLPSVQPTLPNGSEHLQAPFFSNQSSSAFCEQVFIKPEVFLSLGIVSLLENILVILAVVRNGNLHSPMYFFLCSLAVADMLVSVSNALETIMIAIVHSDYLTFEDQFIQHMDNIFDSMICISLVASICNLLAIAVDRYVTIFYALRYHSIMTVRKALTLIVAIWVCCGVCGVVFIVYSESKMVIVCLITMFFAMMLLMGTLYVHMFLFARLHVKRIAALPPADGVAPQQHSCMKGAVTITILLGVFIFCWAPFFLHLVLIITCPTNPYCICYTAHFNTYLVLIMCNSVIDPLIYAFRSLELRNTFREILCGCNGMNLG

Substance | % Inhibition at 1 μM at Melanocortin Receptor 1 [1] | % Inhibition at 1 μM at Melanocortin Receptor 3 [2] | % Inhibition at 1 μM at Melanocortin Receptor 4 [3] | % Inhibition at 1 μM at Melanocortin Receptor 5 [4] | binding to MC1-R, in words [1] | binding to MC3-R, in words [2] | binding to MC4-R, in words [3] | binding to MC5-R, in words [4]
Tyr-Val-Nle-Gly-His-D-Phe-Arg-Trp-Asp-Arg-Cys-Phe-NH2 (YV[Nle]GH[dF]RWDRCF-NH2; also: Re complex) [3-2] | 99% | 91% | 89% | 100% | – | – | – | –
Tyr-Val-Nle-Gly-His-D-Phe-Arg-Trp-Asp-Arg-Phe-Cys-NH2 (FRWDRFC; Tyr-Val-Nle-Gly-His N-term; D-residue; amide; printed: Phe-Arg-Trp-Asp-Arg-Phe-Cys-) [3-1] | 95% | 96% | 98% | 102% | – | – | – | –
Tyr-Val-Nle-Gly-His-D-Phe-Arg-Trp-Asp-Cys-Arg-Phe-NH2 (YV[Nle]GH[dF]RWDCRF-NH2; also: Re complex) [3-3] | 99% | 95% | 99% | 99% | – | – | – | –
Tyr-Val-Nle-Gly-His-D-Phe-Arg-Trp-Asp-Cys-Phe-NH2 (YV[Nle]GH[dF]RWDCF-NH2; numbers in words are those of the source; also: oxorhenium(V) N3S1 chelate complex (Re=O)) [5-2] | 95% | 39% | 58% | 61% | – | – | – | –
Tyr-Val-Nle-Gly-His-D-Phe-Arg-Trp-Cys-Arg-Phe-NH2 (YV[Nle]GH[dF]RWCRF-NH2; numbers in words are those of the source; also: oxorhenium(V) N3S1 chelate complex (Re=O)) [5-3] | 100% | 93% | 97% | 100% | – | – | – | –
Tyr-Val-Nle-Gly-His-D-Phe-Arg-Trp-Cys-Asp-Arg-Phe-NH2 (YV[Nle]GH[dF]RWCDRF-NH2; also: Re complex) [3-4] | 98% | 88% | 94% | 100% | – | – | – | –
Tyr-Val-Nle-Gly-His-D-Phe-Cys-Arg-Trp-Asp-Arg-Phe-NH2 (YV[Nle]GH[dF]CRWDRF-NH2; also: Re complex) [3-6] | 52% | 20% | 31% | 31% | – | – | – | –
Tyr-Val-Nle-Gly-His-D-Phe-Cys-Trp-Asp-Arg-Phe-NH2 (YV[Nle]GH[dF]CWDRF-NH2; numbers in words are those of the source; also: oxorhenium(V) N3S1 chelate complex (Re=O)) [5-5] | 67% | 15% | 26% | 28% | – | – | – | –
Tyr-Val-Nle-Gly-His-Phe-Arg-Cys-Trp-Asp-Arg-Phe-NH2 (YV[Nle]GHFRCWDRF-NH2; numbers in words are those of the source; also: oxorhenium(V) N3S1 chelate (Re=O) with Cys) [4-5] | 89% | 87% | 74% | 68% | preserved all receptor binding | preserved all receptor binding | preserved all receptor binding | preserved all receptor binding
Tyr-Val-Nle-Gly-His-Phe-Arg-Trp-Asp-Arg-Cys-Phe-NH2 (YV[Nle]GHFRWDRCF-NH2; numbers in words are those of the source; also: oxorhenium(V) N3S1 chelate (Re=O) with Cys) [4-2] | 75% | 49% | 23% | 51% | – | – | – | –
Tyr-Val-Nle-Gly-His-Phe-Arg-Trp-Asp-Arg-Phe-Cys-NH2 (GHFRWDRFC; N-terminal Tyr-Val-Nle; C-terminal amide; printed: Gly-His-Phe-Arg-Trp-Asp-Arg-Phe-Cys-) [4-1] | 56% | 69% | 36% | 41% | – | – | – | –
Tyr-Val-Nle-Gly-His-Phe-Arg-Trp-Asp-Arg-Phe-NH2 (GHFRWDRF; N-terminal Tyr-Val-Nle, C-terminal amide; printed: Gly-His-Phe-Arg-Trp-Asp-Arg-Phe-) [Parent, reference compound] | – | – | – | – | high affinity | high affinity | moderate affinity | moderate affinity
Tyr-Val-Nle-Gly-His-Phe-Arg-Trp-Asp-Cys-Arg-Phe-NH2 (YV[Nle]GHFRWDCRF-NH2; numbers in words are those of the source; also: oxorhenium(V) N3S1 chelate (Re=O) with Cys) [4-3] | 44% | 18% | 23% | 65% | – | – | – | –
Tyr-Val-Nle-Gly-His-Phe-Arg-Trp-Cys-Asp-Arg-Phe-NH2 (YV[Nle]GHFRWCDRF-NH2; numbers in words are those of the source; also: oxorhenium(V) N3S1 chelate (Re=O) with Cys) [4-4] | 52% | 20% | 39% | 47% | – | – | – | –
Tyr-Val-Nle-Gly-His-Phe-Cys-Arg-Trp-Asp-Arg-Phe-NH2 (YV[Nle]GHFCRWDRF-NH2; numbers in words are those of the source; also: oxorhenium(V) N3S1 chelate (Re=O) with Cys) [4-6] | −8% | 5% | −2% | 24% | – | – | – | –
YVCGH[dF]RWDRF-NH2 [5-9] | 89% | 53% | 66% | 53% | – | – | – | –
